Laboratory results from the supplement of paper PMC5998384.

How the values were obtained:
[1] = system: HeLa Kyoto; experiment: solubility in G1/S (NP-40 vs SDS abundance) (log2 ratio); higher = more soluble; conditions: cell cycle stage: G1/S
[2] = system: HeLa Kyoto; experiment: thermal stability score vs G1/S (z-score of summed log2 fold changes over temperatures); higher = more thermally stable than in G1/S
[3] = system: HeLa Kyoto; experiment: melting temperature (median over replicates), in situ; higher = more thermally stable
[4] = system: HeLa Kyoto; experiment: solubility change mitosis vs G1/S (difference of NP-40 vs SDS log2 ratios) (log2 ratio difference); higher = more soluble in mitosis
[5] = cell cycle stage: early G1 (4.5 h after nocodazole release)
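Throughout, for melting temperature (median over replicates), in situ: HeLa Kyoto cells synchronized by double thymidine or nocodazole block, proteins quantified by TMT10plex mass spectrometry, three independent biological replicates.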
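Throughout, for solubility change mitosis vs G1/S (difference of NP-40 vs SDS log2 ratios): synchronized HeLa Kyoto cells (double thymidine block for G1/S, nocodazole release for mitosis), protein amounts in NP-40 versus SDS lysates quantified by mass spectrometry, three biological replicates.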
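Throughout, for solubility in G1/S (NP-40 vs SDS abundance): HeLa Kyoto cells arrested at G1/S by double thymidine block, proteins quantified by TMT10plex mass spectrometry in mild NP-40 versus SDS extracts, three biological replicates.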
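Throughout, for thermal stability score vs G1/S (z-score of summed log2 fold changes over temperatures): synchronized HeLa Kyoto cells, proteins quantified by TMT10plex mass spectrometry, three biological replicates, mitosis taken 0.5 h after nocodazole release, G1/S directly after double thymidine block.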

Sequence | solubility in G1/S (log2) [1] | thermal stability score [2, 5] | thermal stability score ([2]; cell cycle stage: mitosis) | melting temperature ([3]; cell cycle stage: G1/S) | melting temperature ([3]; cell cycle stage: mitosis) | solubility change mitosis (log2) [4]
MSWSPSLTTQTCGAWEMKERLGTGGFGNVIRWHNQETGEQIAIKQCRQELSPRNRERWCLEIQIMRRLTHPNVVAARDVPEGMQNLAPNDLPLLAMEYCQGGDLRKYLNQFENCCGLREGAILTLLSDIASALRYLHENRIIHRDLKPENIVLQQGEQRLIHKIIDLGYAKELDQGSLCTSFVGTLQYLAPELLEQQKYTVTVDYWSFGTLAFECITGFRPFLPNWQPVQWHSKVRQKSEVDIVVSEDLNGTVKFSSSLPYPNNLNSVLAERLEKWLQLMLMWHPRQRGTDPTYGPNGCFKALDDILNLKLVHILNMVTGTIHTYPVTEDESLQSLKARIQQDTGIPEEDQELLQEAGLALIPDKPATQCISDGKLNEGHTLDMDLVFLFDNSKITYETQISPRPQPESVSCILQEPKRNLAFFQLRKVWGQVWHSIQTLKEDCNRLQQGQRAAMMNLLRNNSCLSKMKNSMASMSQQLKAKLDFFKTSIQIDLEKYSEQTEFGITSDKLLLAWREMEQAVELCGRENEVKLLVERMMALQTDIVDLQRSPMGRKQGGTLDDLEEQARELYRRLREKPRDQRTEGDSQEMVRLLLQAIQSFEKKVRVIYTQLSKTVVCKQKALELLPKVEEVVSLMNEDEKTVVRLQEKRQKELWNLLKIACSKVRGPVSGSPDSMNASRLSQPGQLMSQPSTASNSLPEPAKKSEELVAEAHNLCTLLENAIQDTVREQDQSFTALDWSWLQTEEEEHSCLEQAS [IKBKB] | 0.0875 | 1.13 | 2.17 | 48.3 °C | 49.2 °C | -0.171
MGGVGEPGPREGPAQPGAPLPTFCWEQIRAHDQPGDKWLVIERRVYDISRWAQRHPGGSRLIGHHGAEDATDAFRAFHQDLNFVRKFLQPLLIGELAPEEPSQDGPLNAQLVEDFRALHQAAEDMKLFDASPTFFAFLLGHILAMEVLAWLLIYLLGPGWVPSALAAFILAISQAQSWCLQHDLGHASIFKKSWWNHVAQKFVMGQLKGFSAHWWNFRHFQHHAKPNIFHKDPDVTVAPVFLLGESSVEYGKKKRRYLPYNQQHLYFFLIGPPLLTLVNFEVENLAYMLVCMQWADLLWAASFYARFFLSYLPFYGVPGVLLFFVAVRVLESHWFVWITQMNHIPKEIGHEKHRDWVSSQLAATCNVEPSLFTNWFSGHLNFQIEHHLFPRMPRHNYSRVAPLVKSLCAKHGLSYEVKPFLTALVDIVRSLKKSGDIWLDAYLHQ [FADS3] | -0.263 | -1.31 | -0.774 | 54.5 °C | 53.9 °C | 0.0263
MAASVVCRAATAGAQVLLRARRSPALLRTPALRSTATFAQALQFVPETQVSLLDNGLRVASEQSSQPTCTVGVWIDVGSRFETEKNNGAGYFLEHLAFKGTKNRPGSALEKEVESMGAHLNAYSTREHTAYYIKALSKDLPKAVELLGDIVQNCSLEDSQIEKERDVILREMQENDASMRDVVFNYLHATAFQGTPLAQAVEGPSENVRKLSRADLTEYLSTHYKAPRMVLAAAGGVEHQQLLDLAQKHLGGIPWTYAEDAVPTLTPCRFTGSEIRHRDDALPFAHVAIAVEGPGWASPDNVALQVANAIIGHYDCTYGGGVHLSSPLASGAVANKLCQSFQTFSICYAETGLLGAHFVCDRMKIDDMMFVLQGQWMRLCTSATESEVARGKNILRNALVSHLDGTTPVCEDIGRSLLTYGRRIPLAEWESRIAEVDASVVREICSKYIYDQCPAVAGYGPIEQLPDYNRIRSGMFWLRF [UQCRC1] | 0.324 | -0.504 | -3.84 | 55.3 °C | 54.2 °C | -0.0237
MANMQGLVERLERAVSRLESLSAESHRPPGNCGEVNGVIAGVAPSVEAFDKLMDSMVAEFLKNSRILAGDVETHAEMVHSAFQAQRAFLLMASQYQQPHENDVAALLKPISEKIQEIQTFRERNRGSNMFNHLSAVSESIPALGWIAVSPKPGPYVKEMNDAATFYTNRVLKDYKHSDLRHVDWVKSYLNIWSELQAYIKEHHTTGLTWSKTGPVASTVSAFSVLSSGPGLPPPPPPLPPPGPPPLFENEGKKEESSPSRSALFAQLNQGEAITKGLRHVTDDQKTYKNPSLRAQGGQTQSPTKSHTPSPTSPKSYPSQKHAPVLELEGKKWRVEYQEDRNDLVISETELKQVAYIFKCEKSTIQIKGKVNSIIIDNCKKLGLVFDNVVGIVEVINSQDIQIQVMGRVPTISINKTEGCHIYLSEDALDCEIVSAKSSEMNILIPQDGDYREFPIPEQFKTAWDGSKLITEPAEIMA [CAP2] | 0.136 | -1.54 | -2.12 | 51.3 °C | 50.3 °C | -0.179
MEHVTEGSWESLPVPLHPQVLGALRELGFPYMTPVQSATIPLFMRNKDVAAEAVTGSGKTLAFVIPILEILLRREEKLKKSQVGAIIITPTRELAIQIDEVLSHFTKHFPEFSQILWIGGRNPGEDVERFKQQGGNIIVATPGRLEDMFRRKAEGLDLASCVRSLDVLVLDEADRLLDMGFEASINTILEFLPKQRRTGLFSATQTQEVENLVRAGLRNPVRVSVKEKGVAASSAQKTPSRLENYYMVCKADEKFNQLVHFLRNHKQEKHLVFFSTCACVEYYGKALEVLVKGVKIMCIHGKMKYKRNKIFMEFRKLQSGILVCTDVMARGIDIPEVNWVLQYDPPSNASAFVHRCGRTARIGHGGSALVFLLPMEESYINFLAINQKCPLQEMKPQRNTADLLPKLKSMALADRAVFEKGMKAFVSYVQAYAKHECNLIFRLKDLDFASLARGFALLRMPKMPELRGKQFPDFVPVDVNTDTIPFKDKIREKQRQKLLEQQRREKTENEGRRKFIKNKAWSKQKAKKEKKKKMNEKRKREEGSDIEDEDMEELLNDTRLLKKLKKGKITEEEFEKGLLTTGKRTIKTVDLGISDLEDDC [DDX55] | -1.07 | 2.22 | 3.29 | 49.2 °C | 50.7 °C | 0.392
MRLHLLLLLALCGAGTTAAELSYSLRGNWSICNGNGSLELPGAVPGCVHSALFQQGLIQDSYYRFNDLNYRWVSLDNWTYSKEFKIPFEISKWQKVNLILEGVDTVSKILFNEVTIGETDNMFNRYSFDITNVVRDVNSIELRFQSAVLYAAQQSKAHTRYQVPPDCPPLVQKGECHVNFVRKEQCSFSWDWGPSFPTQGIWKDVRIEAYNICHLNYFTFSPIYDKSAQEWNLEIESTFDVVSSKPVGGQVIVAIPKLQTQQTYSIELQPGKRIVELFVNISKNITVETWWPHGHGNQTGYNMTVLFELDGGLNIEKSAKVYFRTVELIEEPIKGSPGLSFYFKINGFPIFLKGSNWIPADSFQDRVTSELLRLLLQSVVDANMNTLRVWGGGIYEQDEFYELCDELGIMVWQDFMFACALYPTDQGFLDSVTAEVAYQIKRLKSHPSIIIWSGNNENEEALMMNWYHISFTDRPIYIKDYVTLYVKNIRELVLAGDKSRPFITSSPTNGAETVAEAWVSQNPNSNYFGDVHFYDYISDCWNWKVFPKARFASEYGYQSWPSFSTLEKVSSTEDWSFNSKFSLHRQHHEGGNKQMLYQAGLHFKLPQSTDPLRTFKDTIYLTQVMQAQCVKTETEFYRRSRSEIVDQQGHTMGALYWQLNDIWQAPSWASLEYGGKWKMLHYFAQNFFAPLLPVGFENENTFYIYGVSDLHSDYSMTLSVRVHTWSSLEPVCSRVTERFVMKGGEAVCLYEEPVSELLRRCGNCTRESCVVSFYLSADHELLSPTNYHFLSSPKEAVGLCKAQITAIISQQGDIFVFDLETSAVAPFVWLDVGSIPGRFSDNGFLMTEKTRTILFYPWEPTSKNELEQSFHVTSLTDIY [MANBA] | -0.0999 | -1.93 | -0.28 | 55.6 °C | 56 °C | -0.0887
MFAKAFRVKSNTAIKGSDRRKLRADVTTAFPTLGTDQVSELVPGKEELNIVKLYAHKGDAVTVYVSGGNPILFELEKNLYPTVYTLWSYPDLLPTFTTWPLVLEKLVGGADLMLPGLVMPPAGLPQVQKGDLCAISLVGNRAPVAIGVAAMSTAEMLTSGLKGRGFSVLHTYQDHLWRSGNKSSPPSIAPLALDSADLSEEKGSVQMDSTLQGDMRHMTLEGEEENGEVHQAREDKSLSEAPEDTSTRGLNQDSTDSKTLQEQMDELLQQCFLHALKCRVKKADLPLLTSTFLGSHMFSCCPEGRQLDIKKSSYKKLSKFLQQMQQEQIIQVKELSKGVESIVAVDWKHPRITSFVIPEPSPTSQTIQEGSREQPYHPPDIKPLYCVPASMTLLFQESGHKKGSFLEGSEVRTIVINYAKKNDLVDADNKNLVRLDPILCDCILEKNEQHTVMKLPWDSLLTRCLEKLQPAYQVTLPGQEPIVKKGRICPIDITLAQRASNKKVTVVRNLEAYGLDPYSVAAILQQRCQASTTVNPAPGAKDSLQVQIQGNQVHHLGWLLLEEYQLPRKHIQGLEKALKPGKKK [EIF2D] | 0.234 | 0.861 | 1.5 | 48.3 °C | 48.3 °C | -0.0853
MTHSLVCPETVSRVSSVLNRNTRQFGKKHLFDQDEETCWNSDQGPSQWVTLEFPQLIRVSQLQIQFQGGFSSRRGCLEGSQGTQALHKIVDFYPEDNNSLQTFPIPAAEVDRLKVTFEDATDFFGRVVIYHLRVLGEKV [NR2C2AP] | 0.195 | 0.143 | -0.215 | 53.3 °C | 52.8 °C | -0.238
